Laboratory results from paper PMC6400558 (2019).

T1: dynein intermediate chain (DIC), Q13409
T1 chain: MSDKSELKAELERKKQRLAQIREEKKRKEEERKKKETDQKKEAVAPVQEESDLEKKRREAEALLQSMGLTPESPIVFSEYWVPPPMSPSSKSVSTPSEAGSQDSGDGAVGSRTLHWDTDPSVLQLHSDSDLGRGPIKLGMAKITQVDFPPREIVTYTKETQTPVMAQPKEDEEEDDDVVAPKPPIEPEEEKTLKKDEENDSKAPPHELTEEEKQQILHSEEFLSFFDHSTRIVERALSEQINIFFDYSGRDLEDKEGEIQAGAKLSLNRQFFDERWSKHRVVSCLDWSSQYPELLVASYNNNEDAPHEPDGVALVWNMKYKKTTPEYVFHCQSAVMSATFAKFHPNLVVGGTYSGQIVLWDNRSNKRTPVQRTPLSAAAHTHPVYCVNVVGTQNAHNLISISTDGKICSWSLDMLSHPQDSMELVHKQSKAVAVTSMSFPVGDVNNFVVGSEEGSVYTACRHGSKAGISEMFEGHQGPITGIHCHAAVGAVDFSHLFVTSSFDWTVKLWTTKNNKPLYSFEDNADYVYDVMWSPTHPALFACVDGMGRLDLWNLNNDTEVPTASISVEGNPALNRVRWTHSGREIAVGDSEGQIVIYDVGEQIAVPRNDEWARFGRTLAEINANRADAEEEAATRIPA


Target: T1, dynein intermediate chain (DIC), Q13409
Test: MBP pull-down from HEK293T cell lysate, immunoblot, band intensity quantified
Details: chain shown with the change; n = 3; parent: est. 0.46; read off a plot

Binder	response (Pulldown/Input)
MBP-tagged Hook2 Hook+CC1 (N427) WT, Q96ED9 I150A (protein) MSVDKAELCGSLLTWLQTFHVPSPCASPQDLSSGLAVAYVLNQIDPSWFNEAWLQGISEDPGPNWKLKVSNLKMVLRSLVEYSQDVLAHPVSEEHLPDVSLIGEFSDPAELGKLLQLVLGCAISCEKKQDHIQRIMTLEESVQHVVMEAAQELMTKDTPDSLSPETYGNFDSQSRRYYFLSEEAEEGDELQQRCLDLERQLMLLSEEKQSLAQENAGLRERMGRPEGEGTPGLTAKKLLLLQSQLEQLQEENFRLESGREDERLRCAELEREVAELQHRNQALTSLAQEAQALKDEMDELRQSSERAGQLEATLTSCRRRLGELRELRRQVRQLEERNAGHAERTRQLEDELRRAGSLRAQLEAQRRQVQELQGQRQEEAMKAEKWLFECRNLEEKYESVTKEKERLLAERDSLREANEELRCAQLQ	0.02
MBP-tagged Hook2 Hook+CC1 (N427) WT, Q96ED9 Q143A (protein) MSVDKAELCGSLLTWLQTFHVPSPCASPQDLSSGLAVAYVLNQIDPSWFNEAWLQGISEDPGPNWKLKVSNLKMVLRSLVEYSQDVLAHPVSEEHLPDVSLIGEFSDPAELGKLLQLVLGCAISCEKKQDHIQRIMTLEESVAHVVMEAIQELMTKDTPDSLSPETYGNFDSQSRRYYFLSEEAEEGDELQQRCLDLERQLMLLSEEKQSLAQENAGLRERMGRPEGEGTPGLTAKKLLLLQSQLEQLQEENFRLESGREDERLRCAELEREVAELQHRNQALTSLAQEAQALKDEMDELRQSSERAGQLEATLTSCRRRLGELRELRRQVRQLEERNAGHAERTRQLEDELRRAGSLRAQLEAQRRQVQELQGQRQEEAMKAEKWLFECRNLEEKYESVTKEKERLLAERDSLREANEELRCAQLQ	0.02
